Test [1] deals with T1, DAXX (death domain-associated protein), endogenous (human, UniProt Q9UER7 1-740).
T1 construct: Endogenous protein pulled down with an anti-DAXX mAb or co-precipitated with FLAG-SREBP2; also called endogenous DAXX
As to the kind of experiment: IP of MDA-MB-231 or PC3 cell extracts with an anti-DAXX mAb, immunoblot for SREBP2 (M, mature). From the text:
FIGS. 2A to 2E show DAXX binds to SREBP2. […] MDA-MB-231 or PC3 cell extracts were subjected to IP with a control (IgG) or an anti-DAXX monoclonal antibody. The immunoprecipitated SREBP2 was detected. P, precursor; M, mature SREBP2. FIGS. 2B, 2C, and 2D show there are two independent binding sites in DAXX for mature SREBP2. […] The cell lysates were subjected to FLAG IP. […] HC: IgG heavy chain. *: non-specific band. FIG. 2E is a schematic drawing of DAXX-SREBP2 interactions. The two independent SREBP2-binding sites are depicted. Also shown is the sequence of aa 327-335 within the DAXX HBD critical for the DAXX-SREBP2 interactions. SIM: SUMO-interacting motif; DHB: DAXX helical bundle; HBD: histone-binding domain; PEST: proline, glutamic acid, serine, and threonine-rich sequence. Numbers refer to aa residue positions in the DAXX protein. Note that the irrelevant lanes in the same blots (between the input and IP samples in the PC3 blot in panel A, between lanes 4 and 5, and lanes 12 and 13 in panel B, and between lanes 1 and 2 in panel D) are left out.
Immunoprecipitation (IP) of total cell extracts with anti-DAXX antibody evidenced co-precipitation of two SREBP2 proteins (FIG. 2A) that correspond to the precursor (P) and the mature (M) forms of SREBP2. […]
(In general: In western blotting, separated proteins are transferred to a membrane and probed.)

In test [2] the target is T2, GFP-DAXX S671A (human, UniProt Q9UER7 1-740).
T2 construct: also called S671A mutant; not shown: GFP from the pEGFP-C2 vector
In words: anti-FLAG IP of 293T cells cotransfected with GFP-DAXX constructs and FLAG-SREBP2 (FIG. 6A). From the text: (§1) FIGS. 6A to 6H show mutation of DAXX phosphorylation sites disrupts DAXX-SREBP2 interaction, impairs lipogenesis and tumor growth. […] The GFP-wt DAXX was transfected alone in the absence of FLAG-SREBP2 as a control (lane 7). The lysates of transfected cells were subjected to IP with an anti-FLAG antibody, Both DAXX and FLAG-SREBP2 were detected in immunoprecipitates and input lysates. […] The precipitated DNAs were subjected to qPCR with primers specific to promoter regions of the indicated genes. qPCRs for the 3′ UTR of the FASN and ACACA genes serve as negative control. […] ATRX qRT-PCR serves as a control for genes not regulated by SREBPs. […] Cells were serum-starved for 24 h. DMSO or a mTOR inhibitor (0.1 μM final concentration) was added for 5 h before cell lysis. […] RNAs were isolated from cells cultured in serum-free DMEM for 24 h as in FIG. 6D.

For test [3], the target named is T3, GFP-DAXX S668A/S671A (human, UniProt Q9UER7 1-740).
T3 construct: also called S668A/S671A mutant; not shown: GFP from the pEGFP-C2 vector
The test is described as above.
From the text: as §1

The target in test [4] is T4, GFP-DAXX S495A (human, UniProt Q9UER7 1-740).
T4 construct: also called S495A mutant; not shown: GFP from the pEGFP-C2 vector
The test is described as above.
From the text: as §1

For test [5], the target named is T5, GFP-DAXX S690A (human, UniProt Q9UER7 1-740).
T5 construct: also called S690A mutant; not shown: GFP from the pEGFP-C2 vector
The test is described as above.
From the text: as §1

T5 sequence (Q9UER7 whole entry S690A): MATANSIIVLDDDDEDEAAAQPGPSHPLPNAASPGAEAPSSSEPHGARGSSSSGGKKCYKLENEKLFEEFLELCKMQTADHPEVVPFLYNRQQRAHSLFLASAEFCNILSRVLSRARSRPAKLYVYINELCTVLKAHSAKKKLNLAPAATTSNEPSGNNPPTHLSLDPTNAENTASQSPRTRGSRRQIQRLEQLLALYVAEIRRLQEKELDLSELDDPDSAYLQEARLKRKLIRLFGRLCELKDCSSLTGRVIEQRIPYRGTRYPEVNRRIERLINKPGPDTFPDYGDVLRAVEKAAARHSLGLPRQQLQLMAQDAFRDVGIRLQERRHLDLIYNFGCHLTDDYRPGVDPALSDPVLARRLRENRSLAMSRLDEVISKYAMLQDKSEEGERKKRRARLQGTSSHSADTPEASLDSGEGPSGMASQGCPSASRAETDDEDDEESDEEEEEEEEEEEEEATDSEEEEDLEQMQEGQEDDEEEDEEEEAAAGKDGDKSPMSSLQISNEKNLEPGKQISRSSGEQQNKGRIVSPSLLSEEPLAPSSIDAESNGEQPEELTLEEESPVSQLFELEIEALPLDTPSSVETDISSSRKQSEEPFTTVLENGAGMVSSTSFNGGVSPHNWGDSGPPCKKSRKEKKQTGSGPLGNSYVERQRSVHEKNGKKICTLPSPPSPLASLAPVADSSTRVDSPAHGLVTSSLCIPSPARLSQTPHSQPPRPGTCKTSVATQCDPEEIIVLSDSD
T4 sequence (Q9UER7 whole entry S495A): as the sequence (Q9UER7 whole entry S690A) above, with S495A, A690S counted along it
T2 sequence (Q9UER7 whole entry S671A): as the sequence (Q9UER7 whole entry S690A) above, with S671A, A690S counted along it
T1 sequence (Q9UER7 whole entry, the tested form may be a part): as the sequence (Q9UER7 whole entry S690A) above, with A690S counted along it
T3 sequence (Q9UER7 whole entry S668A/S671A): as the sequence (Q9UER7 whole entry S690A) above, with S668A, S671A, A690S counted along it

B1: SREBP2 mature form, endogenous (other, human, UniProt Q12772 1-484, looked up)
chain: MDDSGELGGLETMETLTELGDELTLGDIDEMLQFVSNQVGEFPDLFSEQLCSSFPGSGGSGSSSGSSGSSSSSSNGRGSSSGAVDPSVQRSFTQVTLPSFSPSAASPQAPTLQVKVSPTSVPTTPRATPILQPRPQPQPQPQTQLQQQTVMITPTFSTTPQTRIIQQPLIYQNAATSFQVLQPQVQSLVTSSQVQPVTIQQQVQTVQAQRVLTQTANGTLQTLAPATVQTVAAPQVQQVPVLVQPQIIKTDSLVLTTLKTDGSPVMAAVQNPALTALTTPIQTAALQVPTLVGSSGTILTTMPVMMGQEKVPIKQVPGGVKQLEPPKEGERRTTHNIIEKRYRSSINDKIIELKDLVMGTDAKMHKSGVLRKAIDYIKYLQQVNHKLRQENMVLKLANQKNKLLKGIDLGSLVDNEVDLKIEDFNQNVLLMSPPASDSGSQAGFSPYSIDSEPGSPLLDDAKVKDEPDSPPVALGMVDRSRILL
notes: domain: mature form (N-terminal domain released by cleavage); also called mature SREBP2
Consider B1, for which the binding result in test [1] is on record as “binds”.

B2: FLAG-SREBP2 (mature) (other, UniProt Q12772 1-481, looked up)
chain: MDDSGELGGLETMETLTELGDELTLGDIDEMLQFVSNQVGEFPDLFSEQLCSSFPGSGGSGSSSGSSGSSSSSSNGRGSSSGAVDPSVQRSFTQVTLPSFSPSAASPQAPTLQVKVSPTSVPTTPRATPILQPRPQPQPQPQTQLQQQTVMITPTFSTTPQTRIIQQPLIYQNAATSFQVLQPQVQSLVTSSQVQPVTIQQQVQTVQAQRVLTQTANGTLQTLAPATVQTVAAPQVQQVPVLVQPQIIKTDSLVLTTLKTDGSPVMAAVQNPALTALTTPIQTAALQVPTLVGSSGTILTTMPVMMGQEKVPIKQVPGGVKQLEPPKEGERRTTHNIIEKRYRSSINDKIIELKDLVMGTDAKMHKSGVLRKAIDYIKYLQQVNHKLRQENMVLKLANQKNKLLKGIDLGSLVDNEVDLKIEDFNQNVLLMSPPASDSGSQAGFSPYSIDSEPGSPLLDDAKVKDEPDSPPVALGMVDRSR
notes: domain: mature form; also called mature SREBP2 (Plasmid #26807); not shown: FLAG tag
B2: the binding result in test [2], in test [3], in test [4] and in test [5] was “no binding” each time.
